For experiment [1], the target named is T1, Cynomolgus/Rhesus IL-2Rβ, His tag (Table 10) (cynomolgus monkey / rhesus monkey, UniProt Q38J85 27-240).
T1 sequence: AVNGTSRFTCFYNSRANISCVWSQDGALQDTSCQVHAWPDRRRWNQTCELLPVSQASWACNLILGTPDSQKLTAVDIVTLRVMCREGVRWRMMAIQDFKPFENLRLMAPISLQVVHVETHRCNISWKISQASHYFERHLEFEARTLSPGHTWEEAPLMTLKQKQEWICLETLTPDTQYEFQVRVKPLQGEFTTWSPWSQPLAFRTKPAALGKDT
The experiment in a line: SPR (Biacore T200). The procedure:
(§1) A Surface Plasmon Resonance (SPR) assay on a Biacore T200 (GE Healthcare) instrument was used to determine the monovalent affinities of pegylated aldesleukin variants against polyhistidine-tagged or Fc-tagged IL-2 Receptors. Biacore T200 Evaluation Software was used to fit each titration series to a 1:1 binding model or steady state affinity. The association (kₒₙ, M⁻¹ s⁻¹) and dissociation (koff, s⁻¹) rate constants were determined for each set of titrations and used to calculate the dissociation constant, KD=koff/kₒₙ, of each sample against each receptor. koff/kₒₙ values are not reported herein.

In experiment [2] the target is T2, human IL-2Rαβγc (on Kit225-STAT5 reporter cells, NK-92 cells, primary Treg cells) (human, UniProt P01589 22-272; P14784 27-551; P31785 23-369).
T2 sequence (looked up) 1: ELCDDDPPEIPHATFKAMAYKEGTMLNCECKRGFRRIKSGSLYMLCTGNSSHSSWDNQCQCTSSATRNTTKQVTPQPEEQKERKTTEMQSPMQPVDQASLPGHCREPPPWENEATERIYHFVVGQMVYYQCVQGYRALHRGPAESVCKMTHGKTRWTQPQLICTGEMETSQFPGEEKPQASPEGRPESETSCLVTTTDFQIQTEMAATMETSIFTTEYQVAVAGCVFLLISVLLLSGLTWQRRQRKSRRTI
T2 sequence (looked up) 2: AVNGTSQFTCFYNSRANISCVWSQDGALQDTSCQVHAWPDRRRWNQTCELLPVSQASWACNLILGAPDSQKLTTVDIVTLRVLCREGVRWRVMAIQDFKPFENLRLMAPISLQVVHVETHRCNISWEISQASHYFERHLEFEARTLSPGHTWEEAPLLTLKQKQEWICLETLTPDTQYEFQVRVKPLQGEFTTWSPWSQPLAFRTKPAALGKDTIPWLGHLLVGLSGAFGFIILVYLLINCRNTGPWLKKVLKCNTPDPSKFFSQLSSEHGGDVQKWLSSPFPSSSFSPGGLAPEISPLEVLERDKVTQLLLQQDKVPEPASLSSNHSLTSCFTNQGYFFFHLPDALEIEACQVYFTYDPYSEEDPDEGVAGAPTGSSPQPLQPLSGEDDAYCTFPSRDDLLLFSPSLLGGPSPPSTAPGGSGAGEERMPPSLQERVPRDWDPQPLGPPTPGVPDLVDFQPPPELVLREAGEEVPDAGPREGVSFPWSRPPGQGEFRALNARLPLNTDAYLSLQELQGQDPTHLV
T2 sequence (looked up) 3: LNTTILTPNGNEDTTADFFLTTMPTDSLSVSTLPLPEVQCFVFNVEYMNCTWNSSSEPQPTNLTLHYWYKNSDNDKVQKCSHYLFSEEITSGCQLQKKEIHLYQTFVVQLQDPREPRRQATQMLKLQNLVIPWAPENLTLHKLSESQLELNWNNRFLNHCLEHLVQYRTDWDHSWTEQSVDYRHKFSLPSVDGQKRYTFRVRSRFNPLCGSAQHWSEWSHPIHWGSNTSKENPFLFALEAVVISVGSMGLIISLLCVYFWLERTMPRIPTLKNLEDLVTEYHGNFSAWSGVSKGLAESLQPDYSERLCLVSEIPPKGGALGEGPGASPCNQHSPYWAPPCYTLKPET
The experiment in a line: cell-based or functional assay.

Experiment [3] addresses T3, human IL-2Rβγc (on DERL-7 cells, U2OS IL2RB/IL2RG cells, CD25 knockout Kit225-STAT5 cells, primary CD8+ CTLs) (human, UniProt P14784 27-551; P31785 23-369).
T3 sequence (looked up) 1: T2 sequence (looked up) 2
T3 sequence (looked up) 2: T2 sequence (looked up) 3
Description: cell-based or functional assay.

Experiment [4] addresses T2, human IL-2Rαβγc (on Kit225-STAT5 …). The experiment in a line: cell-based or functional assay. This is another data set of the same source.
For experiment [5], the target named is T3, human IL-2Rβγc (on DERL-7 cells, U2OS …). The experiment in a line: cell-based or functional assay. This is another data set of the same source.
Experiment [6] concerns the target T4, Human IL-2Rβ, His tag (Table 10) (human, UniProt P14784 27-239, limits assumed).
T4 construct: not shown: polyhistidine tag
T4 sequence (looked up): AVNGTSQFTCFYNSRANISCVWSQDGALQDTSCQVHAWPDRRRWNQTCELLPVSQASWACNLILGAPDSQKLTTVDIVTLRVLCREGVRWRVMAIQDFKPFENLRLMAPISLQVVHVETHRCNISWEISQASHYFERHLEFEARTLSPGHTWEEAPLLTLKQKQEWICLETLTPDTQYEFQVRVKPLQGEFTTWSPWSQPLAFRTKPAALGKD
Description: SPR (Biacore T200), receptor captured on anti-histidine surface. The method, then: as §1
(§2) To measure the affinity of CON1 and aldesleukin for IL-2R subunits, receptors were captured on either an anti-histidine or anti-hu Fc antibody surface. […] CON1 has a six-fold lower affinity for Human and Cynomolgus/Rhesus IL-2-Rβ than aldesleukin.
On the technique in general: In SPR one partner is held on a chip, and binding of the other changes the refractive index at the surface.

In experiment [7] the target is T1, Cynomolgus/Rhesus IL-2Rβ, His tag …. The description is as above. The method, then:
as §1, §2

The record followed here is US20210340207A1 (Merck Sharp & Dohme, published 2021).

*1 amine or outer side, *2 acyl side, *3 side chain or, on linkers, in order; H or OH if unused. Side-chain parts run from the residue outwards. [ ]: non-standard residue; d: D form. pAMF = para-azidomethylphenylalanine, [N-]=[N+]=NCc1ccc(C[C@H](N[*:1])C(=O)[*:2])cc1

Usually Kd stands for a measure of binding affinity in units of concentration.

B1: Ald_S4pAMF(PEG1)/R37A/F41K (CON1) (ligand)
chain: PTS[pAMF]([DBCO‑triazole-mPEG 30 kDa])STKKTQLQLEHLLLDLQMILNGINNYKNPKLTAMLTKKFYMPKKATELKHLQCLEEELKPLEEVLNLAQSKNFHLRPRDLISNINVIVLELKGSETTFMCEYADETATIVEFLNRWITFSQSIISTLT
modifications: not fully specified (bridges)
notes: also called Des-A1_IL-2_S4pAMF(PEG1)/R37A/F41K/C124S
Take B1: the “fold lower affinity than aldesleukin” value in experiment [1] was 6 fold. The “Kit225-STAT5 reporter, fold lower activity than aldesleukin” value in experiment [2] turned out to be 5110 fold. In addition, the “CD25 knockout Kit225-STAT5 reporter, fold lower activity than aldesleukin” value in experiment [3] was found to be 24 fold. In experiment [4], the “pSTAT5 Treg Fold-change from wt, donor #1” value amounted to 3620 fold; the “pSTAT5 Treg Fold-change from wt, donor #2” value was 2230 fold; the “pSTAT5 Treg cells EC50, donor #1” value is 11.8 nM; the “pSTAT5 Treg cells EC50, donor #2” value is 7.29 nM. Moreover, in experiment [5], the “pSTAT5 CTLs EC50, donor #1” value was determined as 71.9 nM; the “pSTAT5 CTLs EC50, donor #2” value was determined as 43 nM; the “pSTAT5 CTLs Fold-change from wt, donor #1” value amounted to 25 fold; the “pSTAT5 CTLs Fold-change from wt, donor #2” value was 45 fold. Also, in experiment [6], the “KD/KD (human)” value amounted to 1 ratio and the affinity, expressed as Kd, was 4.4 µM. For the same molecule, in experiment [7], the “KD/KD (human)” value worked out at 1.2 ratio and binding was characterised by a dissociation constant (Kd) of 5.4 µM.
